Measurements as given in patent US20210155689A1 (SHANGHAI PHARMAEXPLORER, published 2021).

T1: LAG-3-hFc protein (human LAG-3 extracellular region with hFc tag) (human, UniProt P18627 23-450)
T1 construct: also called hLAG-3-hFc; LAG-3 protein; not shown: human IgG Fc fragment (hFc) of the pCpC vector
T1 sequence: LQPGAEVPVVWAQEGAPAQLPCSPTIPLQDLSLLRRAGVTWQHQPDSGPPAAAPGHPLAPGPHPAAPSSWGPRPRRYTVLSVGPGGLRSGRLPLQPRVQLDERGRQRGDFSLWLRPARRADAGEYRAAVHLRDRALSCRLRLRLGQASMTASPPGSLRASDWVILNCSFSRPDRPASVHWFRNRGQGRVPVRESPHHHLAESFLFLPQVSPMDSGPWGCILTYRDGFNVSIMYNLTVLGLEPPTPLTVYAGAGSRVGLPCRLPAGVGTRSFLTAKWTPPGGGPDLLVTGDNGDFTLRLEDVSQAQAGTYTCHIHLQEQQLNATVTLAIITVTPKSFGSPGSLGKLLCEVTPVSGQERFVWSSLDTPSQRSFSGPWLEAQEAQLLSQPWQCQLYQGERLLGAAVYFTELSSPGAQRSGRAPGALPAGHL

T2: human LAG-3 protein with hFc tag (hLAG-3-hFc protein) (human, UniProt P18627 23-450)
T2 construct: also called immunogen 1; LAG-3 extracellular domain protein; not shown: human IgG Fc fragment (hFc) of the pCpC vector
T2 sequence: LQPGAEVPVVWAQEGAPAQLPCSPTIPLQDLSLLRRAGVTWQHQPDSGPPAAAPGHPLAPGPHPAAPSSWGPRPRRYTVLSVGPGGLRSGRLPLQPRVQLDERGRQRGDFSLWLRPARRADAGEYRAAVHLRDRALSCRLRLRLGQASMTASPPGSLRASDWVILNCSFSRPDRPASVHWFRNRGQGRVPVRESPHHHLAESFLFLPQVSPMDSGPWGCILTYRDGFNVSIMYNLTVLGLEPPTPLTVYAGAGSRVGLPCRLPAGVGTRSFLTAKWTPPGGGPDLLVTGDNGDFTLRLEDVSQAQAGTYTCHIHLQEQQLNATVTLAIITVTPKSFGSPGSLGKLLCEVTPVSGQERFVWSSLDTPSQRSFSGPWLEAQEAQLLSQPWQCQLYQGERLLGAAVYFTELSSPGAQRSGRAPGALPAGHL

T3: hFc tagged monkey LAG-3 protein (cLAG-3-hFc protein) (monkey; human)
T3 construct: Made in HEK293 cells; also called monkey LAG-3 extracellular domain protein; not shown: human IgG Fc fragment (hFc) of the pCpC vector
T3 chain: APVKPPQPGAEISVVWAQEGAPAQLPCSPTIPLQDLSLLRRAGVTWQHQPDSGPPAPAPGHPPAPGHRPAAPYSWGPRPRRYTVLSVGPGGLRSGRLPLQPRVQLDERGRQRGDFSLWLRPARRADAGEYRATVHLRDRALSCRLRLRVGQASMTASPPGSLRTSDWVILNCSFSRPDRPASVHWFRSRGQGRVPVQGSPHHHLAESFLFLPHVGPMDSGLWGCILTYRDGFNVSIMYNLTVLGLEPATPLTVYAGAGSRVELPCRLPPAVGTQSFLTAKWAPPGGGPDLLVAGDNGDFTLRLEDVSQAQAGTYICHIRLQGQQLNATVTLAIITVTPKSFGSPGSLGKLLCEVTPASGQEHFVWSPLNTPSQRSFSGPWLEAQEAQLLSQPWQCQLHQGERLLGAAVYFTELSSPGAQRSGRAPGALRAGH

T4: mouse LAG-3 protein with hFc tag (mLAG-3-hFc protein) (mouse; human, UniProt Q61790 24-442)
T4 construct: Made in HEK293 cells; also called mouse LAG-3 extracellular domain protein; not shown: human IgG Fc fragment (hFc) of the pCpC vector
T4 sequence: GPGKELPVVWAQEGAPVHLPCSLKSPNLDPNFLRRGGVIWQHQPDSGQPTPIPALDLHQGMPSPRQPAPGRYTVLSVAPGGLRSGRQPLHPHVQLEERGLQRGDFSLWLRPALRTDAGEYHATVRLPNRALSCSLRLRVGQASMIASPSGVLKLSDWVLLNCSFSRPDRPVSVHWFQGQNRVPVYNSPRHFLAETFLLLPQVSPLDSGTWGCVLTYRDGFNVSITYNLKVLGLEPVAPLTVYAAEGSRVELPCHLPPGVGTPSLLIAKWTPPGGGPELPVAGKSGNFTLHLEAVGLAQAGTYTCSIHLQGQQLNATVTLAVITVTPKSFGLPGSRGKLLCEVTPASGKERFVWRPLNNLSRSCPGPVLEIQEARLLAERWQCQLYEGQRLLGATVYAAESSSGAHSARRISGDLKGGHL


How the values were obtained:
[1] = target: T1, LAG-3-hFc protein (human LAG-3 …); assay: FACS, inhibition of LAG-3-hFc binding to MHC II on Raji cells, antibody 0.823 nM
Method: (§1) The FACS reaction plate incubating the Raji cells was centrifuged to discard the supernatant. The above mixture was added as 100 μl per well to Raji cells and incubated on ice for 1-2 hours. The plate was washed twice with blocking solution (PBS, 2% fetal bovine serum) by centrifugation, added with 100 microliters of fluorescent (Alexa 488)-labeled secondary antibodies per well, and incubated on ice for 1.0 hours. The plate was washed 2-3 times by centrifugation with blocking solution (PBS, 2% fetal bovine serum), added with 100 microliters of PBS per well to suspend cells, and detected using FACS (FACS Calibur, BD) and the results were analyzed. Wherein, the IgG control was murine IgG, and the data in the table is the inhibition rate (%).

[2] = target: T1, LAG-3-hFc protein (human LAG-3 …); assay: FACS, inhibition of LAG-3-hFc binding to MHC II on Raji cells, antibody 22.222 nM
Method: as §1

[3] = target: T2, human LAG-3 protein with hFc tag …; assay: ELISA, hLAG-3-hFc coated; 0.0007 nM
Method: (§2) The plate was sealed with plastic film and incubated overnight at 4° C. The plate was washed 2 times with the plate washing solution (PBS+0.01% Tween20) on the next day, and added with the blocking solution (PBS+0.01% Tween20+1% BSA) and blocked at room temperature for 1-2 hours. The blocking solution was poured out, and the plate was added with 50-100 μl of the antibody sample to be tested to each well, incubated at 37° C. for 1-2 hours, and washed 2-3 times with a plate washing solution (PBS+0.01% Tween20). HRP (horseradish peroxidase) labeled secondary antibody was added, and the plate was incubated at 37° C. for 1-2 hours, and washed 2-3 times with a plate washing solution (PBS+0.01% Tween20). 100 μl of TMB substrate was added to each well. After incubated at room temperature for 15-30 minutes, the plate was added with 100 μl of stop solution (1.0N HCl) to each well.

[4] = target: T3, hFc tagged monkey LAG-3 protein …; assay: ELISA, cLAG-3-hFc coated; 0.6667 nM
Method: as §2

[5] = target: T4, mouse LAG-3 protein with hFc tag …; assay: ELISA, mLAG-3-hFc coated; 0.6667 nM
Method: as §2

Row | Binder | Inhibition rate (%) [1] [%] | Inhibition rate (%) [2] [%] | OD450 [3] [OD450] | OD450 [4] [OD450] | OD450 [5] [OD450]
1 | 556F6B8 mouse-human chimeric antibody (antibody, V domains shown, also called mAb123-556F6B8; 556F8B8) VH: RVQLKQSGPGLVQPSQSLSITCTVSGFSLIKYGVHWVRQSPGEGLEWLGVIWRGGITDYNAAFMSRLSITKDNSKSQVFFKMNSLQADDTAIYYCAKWDGPLAMDYWGQGTSVTVSS VL: DIVMTQSHKFLSTSVGDRVSITCKASQDVGTTVAWYQQKPGQSPKLLIYWASTRHTGVPDRFTGSGSGTDFTLTISNVQSEDLADYFCQQYSSYPYTFGGGTKLEIK | 29.7 | 95.8 |  |  | 
2 | 556F6B8 (LAG-3 mouse-human chimeric antibody) (antibody, V domains shown, also called 556F8B8) VH: RVQLKQSGPGLVQPSQSLSITCTVSGFSLIKYGVHWVRQSPGEGLEWLGVIWRGGITDYNAAFMSRLSITKDNSKSQVFFKMNSLQADDTAIYYCAKWDGPLAMDYWGQGTSVTVSS VL: DIVMTQSHKFLSTSVGDRVSITCKASQDVGTTVAWYQQKPGQSPKLLIYWASTRHTGVPDRFTGSGSGTDFTLTISNVQSEDLADYFCQQYSSYPYTFGGGTKLEIK |  |  | 0.17 | 3.7 | 0.15
3 | 105F1E10 mouse-human chimeric antibody (antibody, V domains shown, also called mAb009-105F1E10) VH: EVQLQQSGPELVKPGASVKMSCRASGYTFTDFKMHWMKQSHGKSLEWIGYIAPNNGGTAYNQKFRGKATLTVNESSNTAYMELRSLTSEDSAVYYCVDWDDVDYWGQGTTLTVSS VL: DIKMTQSPSSMYASLGERVTITCKASQDINSYLSWFQQKSGKSPKTLIYRANRLVDGVPSRFSGSGSGQDYSLTISSLEYEDMGIYYCLQYVEFPLTFGAGTKLELK | -0.3 | 95.8 |  |  | 
4 | 405B8H3 mouse-human chimeric antibody (antibody, V domains shown, also called mAb103-405B8H3) VH: QVQLQQSGAELVRPGASVTLSCKASGYTFTDYEMHWVKQTPVHGLEWIGATDPETGNSAYNQKFKGKAIMTADKSSSTAYMELRSLTSEDSAVYYCISTGWNDWGQGTSLTVSS VL: DIKMTQSPSSMYASLGERVTITCKASQDINSYLSWFQQKPGKSPKTLIYRADRLLDGVPSRFSGSGSGQDYSLTISSLEYGDMGIYYCLQYDEFPYTFGGGTKLEIK | 17.5 | 95.7 |  |  | 
5 | 405B8H3 (LAG-3 mouse-human chimeric antibody) (antibody, V domains shown, also called mouse-human chimeric antibody 405B8H3) VH: QVQLQQSGAELVRPGASVTLSCKASGYTFTDYEMHWVKQTPVHGLEWIGATDPETGNSAYNQKFKGKAIMTADKSSSTAYMELRSLTSEDSAVYYCISTGWNDWGQGTSLTVSS VL: DIKMTQSPSSMYASLGERVTITCKASQDINSYLSWFQQKPGKSPKTLIYRADRLLDGVPSRFSGSGSGQDYSLTISSLEYGDMGIYYCLQYDEFPYTFGGGTKLEIK |  |  | 0.19 | 3.39 | 0.11
6 | 105F1E10 (LAG-3 mouse-human chimeric antibody) (antibody, V domains shown) VH: EVQLQQSGPELVKPGASVKMSCRASGYTFTDFKMHWMKQSHGKSLEWIGYIAPNNGGTAYNQKFRGKATLTVNESSNTAYMELRSLTSEDSAVYYCVDWDDVDYWGQGTTLTVSS VL: DIKMTQSPSSMYASLGERVTITCKASQDINSYLSWFQQKSGKSPKTLIYRANRLVDGVPSRFSGSGSGQDYSLTISSLEYEDMGIYYCLQYVEFPLTFGAGTKLELK |  |  | 0.2 | 3.38 | 0.09
7 | 409D4E10 mouse-human chimeric antibody (antibody, V domains shown, also called mAb112-409D4E10) VH: QVQLQQSGAELVRPGASVTLSCKASGNTFTDYEMHWVKQTPVHGLEWIGATDPETDNTAYNQKFKGKAILTTDKSSSTAYMELRSLTSEDSAVYYCITSGWNDWGQGTSLTVSS VL: DIKMTQSPSSMYASLGERVTITCKASQDINSYLSWFQQKPGKSPKTLIYRANRLLDGVPSRFSGSGSGQDYSLTISSLEYEDMGIYYCLQYNEFPYTFGGGTKLEIK | 20.9 | 95.7 |  |  | 
8 | 409D4E10 (LAG-3 mouse-human chimeric antibody) (antibody, V domains shown) VH: QVQLQQSGAELVRPGASVTLSCKASGNTFTDYEMHWVKQTPVHGLEWIGATDPETDNTAYNQKFKGKAILTTDKSSSTAYMELRSLTSEDSAVYYCITSGWNDWGQGTSLTVSS VL: DIKMTQSPSSMYASLGERVTITCKASQDINSYLSWFQQKPGKSPKTLIYRANRLLDGVPSRFSGSGSGQDYSLTISSLEYEDMGIYYCLQYNEFPYTFGGGTKLEIK |  |  | 0.16 | 3.78 | 0.11
9 | 409B11E12 (LAG-3 mouse-human chimeric antibody) (antibody, V domains shown) VH: QVQLQQSGAELVRPGASVTLSCKASGYTFTDYEMHWVKQTTVHGLEWIGATDPETSYSAYNQKFKGKAILTADKSSSTAYMELRSLTSEDSAVYYCIATGWNDWGQGTSLTVSS VL: DLKMTQSPSSMYASLGERVTITCKASQDINSYLSWFQQKPGKSPKTLIYRANRLLDGVPSRFSGSGSGQDYSLTISSLEYEDMGIYYCLQYDEFPYTFGGGTKLEIK |  |  | 0.2 | 3.36 | 0.1
10 | 409B11E12 mouse-human chimeric antibody (antibody, V domains shown, also called mAb104-409B11E12) VH: QVQLQQSGAELVRPGASVTLSCKASGYTFTDYEMHWVKQTTVHGLEWIGATDPETSYSAYNQKFKGKAILTADKSSSTAYMELRSLTSEDSAVYYCIATGWNDWGQGTSLTVSS VL: DLKMTQSPSSMYASLGERVTITCKASQDINSYLSWFQQKPGKSPKTLIYRANRLLDGVPSRFSGSGSGQDYSLTISSLEYEDMGIYYCLQYDEFPYTFGGGTKLEIK | 24.4 | 95.6 |  |  | 
